{"source": "patent US6794491B1", "about": "“Polypeptides, their production and use” (Takeda Chemical Industries, Ltd., priority 1995, dated 2004)", "key": {"[1]": {"molecular_target": "T1, full-length receptor protein expressed CHO cells (CHO-19P2); human pituitary receptor protein (hGR3) (Homo sapiens, UniProt P49683)", "T1 construct": "to construct a full-length receptor protein expression plasmid pAKKO-19P2; expressed in transfected cells; host or cells: CHO dhfr- cells transfected with pAKKO-19P2 (CHO-19P2; clone CHO-19P2-9)", "T1 sequence (P49683 1-370)": "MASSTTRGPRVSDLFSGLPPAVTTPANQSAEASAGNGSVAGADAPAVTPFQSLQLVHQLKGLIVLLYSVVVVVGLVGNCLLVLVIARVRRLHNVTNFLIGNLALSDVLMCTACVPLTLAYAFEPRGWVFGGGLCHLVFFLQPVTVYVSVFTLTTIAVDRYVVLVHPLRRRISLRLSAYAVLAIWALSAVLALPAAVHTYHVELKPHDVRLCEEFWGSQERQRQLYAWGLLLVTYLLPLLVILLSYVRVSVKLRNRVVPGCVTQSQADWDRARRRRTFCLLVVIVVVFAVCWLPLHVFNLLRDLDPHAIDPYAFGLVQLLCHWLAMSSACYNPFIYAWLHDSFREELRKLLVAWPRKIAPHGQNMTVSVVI", "assay": "release of arachidonic acid metabolites from CHO-19P2 cells", "assay_type": "cell-based", "conditions": "for arachidonic acid metabolite-releasing activity: amount of [3H]arachidonic acid metabolites, 10^−12 M-10^−6 M in 0.05% BSA-HBSS", "protocol": "The full-length receptor protein-expressed CHO cells and mock CHO cells were seeded in a 24-well plate, 0.5×10^5 cells/well, and cultured for 24 hours. Then, [^3H] arachidonic acid was added at a final concentration of 0.25 μCi/well. Sixteen (16) hours after addition of [^3H] arachidonic acid, the cells were rinsed with 0.05% BSA-HBSS and the above-mentioned crude peptide fraction was added, 400 μl/well. The mixture was incubated at 37° C. for 30 minutes and a 300 μl portion of the reaction mixture (400 μl) was added to 4 ml of a scintillator and the amount of [^3H] arachidonic acid metabolite released into the reaction mixture was determined with a scintillation counter.\nThe activity of the peptide (19P2-L31) synthesized in Example 21 to specifically release arachidonic acid metabolites from CHO-19P2 cells was assayed in the same manner as Example 11. The synthetic peptide was dissolved in degassed dH20 at a concentration of 10^−3M and diluted with 0.05% BSA-HBSS and the activity to promote release of arachidonic acid metabolites from CHO-19P2 cells at each concentration was assayed using the amount of [^3H]arachidonic acid metabolites as the indicator.\nThe activity of the synthetic equivalent (19P2-L20) of natural peptide P-2 as synthesized in Example 23 to specifically promote release of arachidonic acid metabolites from CHO-19P2 cells was determined as in Example 11. Thus, the synthetic peptide was dissolved in degassed dH2O at a final concentration of 10^−3M and this solution was serially diluted with 0.05% BAS-HBSS. The activity to specifically promote release of arachidonic acid metabolites from CHO-19P2 cells at each concentration was assayed using the amount of [^3H]arachidonic acid metabolites as the indicator."}, "[2]": {"assay": "plasma growth hormone (GH) level in freely moving rats, GHRH-induced", "assay_type": "in vivo, male Wistar rats", "conditions": "5 μg/kg GHRH intravenously", "protocol": "Mature male Wistar rats were anesthetized with pentobarbital 50 mg/kg i.p. and, as in Example 41, a stainless-steel guide cannula AG-12 (0.4 mm in. dia., 0.5 mm out. dia., EICOM) was implanted in position with its tip situated in the upper part of the third ventricle. After the operation the rats were housed in individual cages and kept for at least 3 days for recuperation and, then, a cannula (30 cm long, 0.5 mm in. dia., 0.9 mm out. dia., Natsume Seisakusho) filled with heparin (200 U/ml)-containing saline was inserted into the right atrium from the right jugular vein under pentobarbital anesthesia. The rats were maintained overnight for complete arousal from anesthesia and then transferred to transparent acrylic cages (30 cm×30 cm×35 cm). A 1 ml tuberculin syringe with a 24-G needle (both by Termo) was connected to the cannula inserted in the atrium and 300 μl of blood was drawn. To prevent clotting, the syringe was filled with 20 μl of saline containing 200 U/ml of heparin beforehand. […] The concentrations of GH in the plasma were determined by radioimmunoassay.\nThe results were expressed as a mean±S.E.M. To test for significant difference between the group treated with 19P2-L31 dissolved in PBS and the control group treated with PBS alone, Student's t-test was used. […]"}}, "note": "Entries after “also recorded” stand apart in the source; their conditions may differ. Where no end group is shown, it is not given here. [ ]: non-standard residue; d: D form. Met(O) = CS(=O)CC[C@H](N)C(=O)O", "data": [{"substance": "19P2-L31(O): the methionine-oxidation product of 19P2-L31 synthesized in Example 22 (SRAHQHS[Met(O)]EIRTPDINPAWYAGRGIRPVGRF-NH2; N-terminus assumed; SMILES CC[C@H](C)[C@H](NC(=O)CNC(=O)[C@H](CCCNC(=N)N)NC(=O)CNC(=O)[C@H](C)NC(=O)[C@H](Cc1ccc(O)cc1)NC(=O)[C@H](Cc1c[nH]c2ccccc12)NC(=O)[C@H](C)NC(=O)[C@@H]1CCCN1C(=O)[C@H](CC(N)=O)NC(=O)[C@@H](NC(=O)[C@H](CC(=O)O)NC(=O)[C@@H]1CCCN1C(=O)[C@@H](NC(=O)[C@H](CCCNC(=N)N)NC(=O)[C@@H](NC(=O)[C@H](CCC(=O)O)NC(=O)[C@H](CCS(C)=O)NC(=O)[C@H](CO)NC(=O)[C@H](Cc1c[nH]cn1)NC(=O)[C@H](CCC(N)=O)NC(=O)[C@H](Cc1c[nH]cn1)NC(=O)[C@H](C)NC(=O)[C@H](CCCNC(=N)N)NC(=O)[C@@H](N)CO)[C@@H](C)CC)[C@@H](C)O)[C@@H](C)CC)C(=O)N[C@@H](CCCNC(=N)N)C(=O)N1CCC[C@H]1C(=O)N[C@H](C(=O)NCC(=O)N[C@@H](CCCNC(=N)N)C(=O)N[C@@H](Cc1ccccc1)C(N)=O)C(C)C)", "values": [{"measurement": "arachidonic acid metabolite-releasing activity compared with that of 19P2-L31", "setting": "[1]", "value": "equivalent to the activity of 19P2-L31"}, {"measurement": "arachidonic acid metabolite-releasing activity", "setting": "[1]", "value": "found in a dose-dependent manner"}]}, {"substance": "GHRH: Growth hormone releasing hormone (YADAIFTNSYRKVLGQLSARKLLQDIMSRQQGESNQERGARARL; ends and bridges not checked; UniProt P01286 32-75, looked up) [reference compound]", "values": [{"measurement": "plasma GH level", "setting": "[2]", "value": "elevated the plasma GH level"}]}, {"substance": "Thr-Pro-Asp-Ile-Aln-Pro-Ala-Trp-Tyr-Ala-Gly-Arg-Gly-Ile-Arg-Pro-Val-Gly-Arg-Phe-NH2 (TPDINPAWYAGRGIRPVGRF-NH2; also: position 5 written 'Aln' in name, letter N) [19P2-L20]", "values": [{"measurement": "arachidonic acid metabolite-releasing activity compared with that of 19P2-L31", "setting": "[1]", "value": "in nearly the same degree as 19P2-L31"}, {"measurement": "arachidonic acid metabolite-releasing activity", "setting": "[1]", "value": "concentration-dependent arachidonic acid metabolite-releasing activity was detected over the range of 10^−12-10^−6M; also recorded: found in a dose-dependent manner"}]}]}
